Results reported in PMC2649783.

Molecular target: HUαβ (Escherichia coli (overexpressed in …, UniProt P0ACF0;P0ACF4 1-90;1-90))
Experiment: ITC

Sequence of HUαβ (Escherichia coli (P0ACF0 whole entry, chain 1 of 2): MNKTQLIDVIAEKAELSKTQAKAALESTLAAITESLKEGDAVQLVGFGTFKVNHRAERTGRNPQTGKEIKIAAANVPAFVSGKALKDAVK
Sequence of HUαβ (Escherichia coli (P0ACF4 whole entry, chain 2 of 2): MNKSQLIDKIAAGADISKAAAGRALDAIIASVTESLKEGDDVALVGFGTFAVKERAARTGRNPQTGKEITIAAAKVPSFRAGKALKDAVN

B1: 38 bp DNA (dsDNA)
DNA 1: CGGTCAGTTCAAGCCCTTCTAAGTTTGTAGACACCAGC
DNA 2: GCTGGTGTCTACAAACTTAGAAGGGCTTGAACTGACCG
B1: binds.
